Legend:
Grb2 SH2 = Grb2 SH2 (UniProt P62993); assay: SH2 binding enrichment of the phosphorylated peptide, bacterial display (enrichment ratio); higher = better substrate or ligand; peptides without Tyr show the background
SHP2-C SH2 = assay: as above
c-Src SH2 = assay: as above
FGFR1 = FGFR1 (UniProt P11362); assay: phosphorylation enrichment, bacterial display (enrichment ratio); higher = better substrate or ligand; peptides without Tyr show the background
Fes = Fes (UniProt P07332); assay: as above
MERTK = MERTK (UniProt Q12866); assay: as above
Fer (mouse) = assay: as above
Hck = Hck (UniProt P08631); assay: as above
FGFR3 = FGFR3 (UniProt P22607); assay: as above
Jak2 = Jak2 (UniProt O60674); assay: as above
EPHB1 = EPHB1 (UniProt P54762); assay: as above
Fyn = Fyn (UniProt P06241); assay: as above
c-Src = assay: as above
EPHB2 = EPHB2 (UniProt P29323); assay: as above
c-Abl (mouse) = assay: as above
AncSZ = assay: as above
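Wherever SH2 binding enrichment of the phosphorylated peptide, bacterial display is given: peptide library displayed on the E. coli surface as eCPX fusions, selected cells deep-sequenced, score is each peptide's frequency after selection divided by its frequency in the input.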
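Wherever phosphorylation enrichment, bacterial display is given: 11-residue human phosphosite peptides and single-mutation variants displayed on the E. coli surface, counted by deep sequencing, each peptide's frequency after selection divided by its frequency in the unselected input library; frequency after pTyr selection over input frequency; kinase dosed for 20-30% of maximal phosphorylation in three min.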

Jak2, sequence (O60674 whole entry, looked up): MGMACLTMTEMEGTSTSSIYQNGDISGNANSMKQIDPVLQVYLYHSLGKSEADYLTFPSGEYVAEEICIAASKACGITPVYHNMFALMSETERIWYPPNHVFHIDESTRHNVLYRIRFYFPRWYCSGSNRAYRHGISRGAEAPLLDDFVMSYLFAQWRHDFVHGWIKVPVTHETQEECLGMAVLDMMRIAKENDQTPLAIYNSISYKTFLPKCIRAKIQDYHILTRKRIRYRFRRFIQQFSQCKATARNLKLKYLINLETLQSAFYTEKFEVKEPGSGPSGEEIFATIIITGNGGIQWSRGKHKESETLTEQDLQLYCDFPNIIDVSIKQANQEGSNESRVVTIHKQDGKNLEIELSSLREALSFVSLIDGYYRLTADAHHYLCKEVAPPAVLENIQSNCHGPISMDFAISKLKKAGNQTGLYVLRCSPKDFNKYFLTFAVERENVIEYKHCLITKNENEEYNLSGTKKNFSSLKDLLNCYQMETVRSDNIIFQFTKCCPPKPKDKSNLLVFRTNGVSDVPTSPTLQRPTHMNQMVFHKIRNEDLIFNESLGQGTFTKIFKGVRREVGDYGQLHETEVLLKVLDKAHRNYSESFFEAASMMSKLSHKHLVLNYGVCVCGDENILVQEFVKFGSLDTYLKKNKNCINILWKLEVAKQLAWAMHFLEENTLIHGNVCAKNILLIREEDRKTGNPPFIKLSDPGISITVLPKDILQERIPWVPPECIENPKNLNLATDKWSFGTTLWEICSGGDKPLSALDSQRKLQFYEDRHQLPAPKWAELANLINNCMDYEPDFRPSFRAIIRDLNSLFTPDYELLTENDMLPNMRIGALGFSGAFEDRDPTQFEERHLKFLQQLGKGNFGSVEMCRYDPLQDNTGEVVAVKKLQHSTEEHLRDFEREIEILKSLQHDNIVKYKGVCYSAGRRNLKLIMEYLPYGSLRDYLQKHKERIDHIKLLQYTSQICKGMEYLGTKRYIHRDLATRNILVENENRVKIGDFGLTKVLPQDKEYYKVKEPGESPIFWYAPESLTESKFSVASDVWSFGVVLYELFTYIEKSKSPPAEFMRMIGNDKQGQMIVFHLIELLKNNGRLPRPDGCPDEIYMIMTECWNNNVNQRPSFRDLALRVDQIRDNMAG
MERTK, sequence (Q12866 whole entry, looked up): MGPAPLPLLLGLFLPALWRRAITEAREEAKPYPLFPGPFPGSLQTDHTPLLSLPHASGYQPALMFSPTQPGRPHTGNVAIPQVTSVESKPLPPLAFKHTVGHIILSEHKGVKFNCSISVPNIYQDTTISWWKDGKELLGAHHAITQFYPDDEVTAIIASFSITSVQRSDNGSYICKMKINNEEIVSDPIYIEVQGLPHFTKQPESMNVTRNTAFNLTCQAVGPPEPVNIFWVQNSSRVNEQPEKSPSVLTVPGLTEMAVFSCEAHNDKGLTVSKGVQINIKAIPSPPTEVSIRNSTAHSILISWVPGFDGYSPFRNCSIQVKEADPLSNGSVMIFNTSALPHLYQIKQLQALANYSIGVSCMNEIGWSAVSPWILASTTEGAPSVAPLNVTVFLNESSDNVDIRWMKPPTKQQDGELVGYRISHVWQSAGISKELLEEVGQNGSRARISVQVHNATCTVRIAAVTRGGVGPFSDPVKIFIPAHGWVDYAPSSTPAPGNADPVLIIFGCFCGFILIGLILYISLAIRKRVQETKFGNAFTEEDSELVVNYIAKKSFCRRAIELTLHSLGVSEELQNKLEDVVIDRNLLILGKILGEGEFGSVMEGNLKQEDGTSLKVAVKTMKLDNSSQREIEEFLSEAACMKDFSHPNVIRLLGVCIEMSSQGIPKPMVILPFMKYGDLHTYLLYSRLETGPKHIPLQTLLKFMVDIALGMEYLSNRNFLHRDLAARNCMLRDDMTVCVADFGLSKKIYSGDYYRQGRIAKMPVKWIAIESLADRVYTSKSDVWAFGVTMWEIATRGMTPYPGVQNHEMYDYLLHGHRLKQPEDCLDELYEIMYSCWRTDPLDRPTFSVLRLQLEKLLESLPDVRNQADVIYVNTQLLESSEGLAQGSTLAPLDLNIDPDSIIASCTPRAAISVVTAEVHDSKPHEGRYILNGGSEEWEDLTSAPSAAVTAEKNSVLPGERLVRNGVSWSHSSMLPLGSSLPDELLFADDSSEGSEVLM
Hck, sequence (P08631 whole entry, looked up): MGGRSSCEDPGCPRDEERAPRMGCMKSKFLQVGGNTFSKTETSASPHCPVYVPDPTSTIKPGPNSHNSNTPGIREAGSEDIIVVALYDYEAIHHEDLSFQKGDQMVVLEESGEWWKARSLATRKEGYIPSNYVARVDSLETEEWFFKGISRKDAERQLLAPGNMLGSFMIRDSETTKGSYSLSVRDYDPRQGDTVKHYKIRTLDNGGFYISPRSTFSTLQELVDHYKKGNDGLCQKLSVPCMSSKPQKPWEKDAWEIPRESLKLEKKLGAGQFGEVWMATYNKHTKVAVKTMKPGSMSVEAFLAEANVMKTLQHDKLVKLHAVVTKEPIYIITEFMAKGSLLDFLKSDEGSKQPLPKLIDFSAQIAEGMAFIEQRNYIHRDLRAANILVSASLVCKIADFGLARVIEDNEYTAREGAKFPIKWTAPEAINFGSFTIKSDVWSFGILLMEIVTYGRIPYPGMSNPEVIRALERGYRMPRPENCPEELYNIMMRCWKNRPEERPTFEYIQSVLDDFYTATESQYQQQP
EPHB2, sequence (P29323 whole entry, looked up): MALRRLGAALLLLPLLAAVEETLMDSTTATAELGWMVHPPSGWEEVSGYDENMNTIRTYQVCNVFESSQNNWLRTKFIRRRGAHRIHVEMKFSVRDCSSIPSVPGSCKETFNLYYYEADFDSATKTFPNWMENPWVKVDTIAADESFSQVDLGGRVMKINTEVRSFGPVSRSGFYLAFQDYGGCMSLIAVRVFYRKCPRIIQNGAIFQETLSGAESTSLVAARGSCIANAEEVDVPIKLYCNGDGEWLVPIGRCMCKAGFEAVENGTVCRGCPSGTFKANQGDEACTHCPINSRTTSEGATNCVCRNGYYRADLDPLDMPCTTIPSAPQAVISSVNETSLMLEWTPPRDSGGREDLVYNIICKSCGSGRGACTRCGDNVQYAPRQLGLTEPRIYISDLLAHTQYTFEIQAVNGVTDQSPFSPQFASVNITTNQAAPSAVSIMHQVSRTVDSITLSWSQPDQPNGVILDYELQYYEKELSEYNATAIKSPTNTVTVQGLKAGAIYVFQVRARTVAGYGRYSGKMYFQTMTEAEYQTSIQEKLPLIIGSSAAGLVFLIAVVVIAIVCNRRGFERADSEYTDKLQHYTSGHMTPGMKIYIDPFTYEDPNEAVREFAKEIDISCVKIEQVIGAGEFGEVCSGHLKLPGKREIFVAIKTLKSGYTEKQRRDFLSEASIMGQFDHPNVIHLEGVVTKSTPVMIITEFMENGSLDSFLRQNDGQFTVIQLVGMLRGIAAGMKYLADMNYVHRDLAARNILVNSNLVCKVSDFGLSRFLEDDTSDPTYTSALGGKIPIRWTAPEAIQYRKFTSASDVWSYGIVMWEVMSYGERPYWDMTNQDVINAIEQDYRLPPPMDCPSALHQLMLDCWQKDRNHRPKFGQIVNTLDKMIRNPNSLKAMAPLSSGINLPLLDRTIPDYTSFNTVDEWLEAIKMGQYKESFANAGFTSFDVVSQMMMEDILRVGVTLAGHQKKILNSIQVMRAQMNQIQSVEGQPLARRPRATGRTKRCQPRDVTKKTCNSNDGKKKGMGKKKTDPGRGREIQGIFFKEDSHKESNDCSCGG
Fyn, sequence (P06241 whole entry, looked up): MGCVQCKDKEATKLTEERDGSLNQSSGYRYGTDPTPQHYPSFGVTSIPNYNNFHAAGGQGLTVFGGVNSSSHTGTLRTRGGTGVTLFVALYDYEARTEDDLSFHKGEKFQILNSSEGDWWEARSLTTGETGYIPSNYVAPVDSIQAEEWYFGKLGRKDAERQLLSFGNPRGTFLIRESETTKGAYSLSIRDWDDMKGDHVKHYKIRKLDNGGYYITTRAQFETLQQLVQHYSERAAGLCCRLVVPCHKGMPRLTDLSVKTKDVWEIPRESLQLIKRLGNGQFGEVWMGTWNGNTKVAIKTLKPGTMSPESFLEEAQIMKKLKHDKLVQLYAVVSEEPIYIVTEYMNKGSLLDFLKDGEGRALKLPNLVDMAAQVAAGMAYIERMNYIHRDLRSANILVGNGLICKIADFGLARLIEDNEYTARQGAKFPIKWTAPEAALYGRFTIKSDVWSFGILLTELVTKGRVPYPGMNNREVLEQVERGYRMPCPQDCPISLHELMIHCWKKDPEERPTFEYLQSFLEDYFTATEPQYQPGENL
Fes, sequence (P07332 whole entry, looked up): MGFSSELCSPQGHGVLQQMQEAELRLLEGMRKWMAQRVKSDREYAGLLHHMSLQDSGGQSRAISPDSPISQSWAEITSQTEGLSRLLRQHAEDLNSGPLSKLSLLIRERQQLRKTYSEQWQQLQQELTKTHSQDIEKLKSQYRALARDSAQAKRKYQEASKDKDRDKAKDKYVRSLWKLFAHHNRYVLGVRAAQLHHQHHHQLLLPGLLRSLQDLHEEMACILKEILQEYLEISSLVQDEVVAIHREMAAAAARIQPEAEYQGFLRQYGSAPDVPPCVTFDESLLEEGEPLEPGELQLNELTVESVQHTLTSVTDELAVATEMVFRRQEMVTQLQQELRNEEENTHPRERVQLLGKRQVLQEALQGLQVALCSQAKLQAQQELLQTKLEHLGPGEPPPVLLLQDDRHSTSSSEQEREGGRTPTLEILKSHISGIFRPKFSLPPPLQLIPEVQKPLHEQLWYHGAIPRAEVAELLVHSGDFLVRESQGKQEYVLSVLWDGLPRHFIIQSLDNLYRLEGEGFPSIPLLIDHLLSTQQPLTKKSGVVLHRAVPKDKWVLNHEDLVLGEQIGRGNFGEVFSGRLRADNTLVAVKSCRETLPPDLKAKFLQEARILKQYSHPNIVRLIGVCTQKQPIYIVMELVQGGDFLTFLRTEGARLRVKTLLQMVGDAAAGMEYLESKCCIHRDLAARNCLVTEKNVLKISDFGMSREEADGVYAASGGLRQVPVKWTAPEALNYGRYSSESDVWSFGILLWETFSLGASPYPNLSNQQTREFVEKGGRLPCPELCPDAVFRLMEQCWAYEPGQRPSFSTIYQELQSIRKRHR

Sequence | SH2 binding enrichment (Grb2 SH2) | SH2 binding enrichment (SHP2-C SH2) | SH2 binding enrichment (c-Src SH2) | phosphorylation enrichment (FGFR1) | phosphorylation enrichment (Fes) | phosphorylation enrichment (MERTK) | phosphorylation enrichment (Fer (mouse)) | phosphorylation enrichment (Hck) | phosphorylation enrichment (FGFR3) | phosphorylation enrichment (Jak2) | phosphorylation enrichment (EPHB1) | phosphorylation enrichment (Fyn) | phosphorylation enrichment (c-Src) | phosphorylation enrichment (EPHB2) | phosphorylation enrichment (c-Abl (mouse)) | phosphorylation enrichment (AncSZ)
SIKDKYLTALF [KCNH2_Y611_V612L_YF] | 1.07 | 0.778 | 0.674 | 0.481 | 0.784 | 0.408 | 0.484 | 0.414 | 0.572 | 0.665 | 0.435 | 0.448 | 0.394 | 0.449 | 0.468 | 0.724
SIVEDYRPPFF [ACVRL1_Y421_G416S_YF] | 0.83 | 0.73 | 0.444 | 0.435 | 1.01 | 0.473 | 0.485 | 0.38 | 0.646 | 0.85 | 0.578 | 0.378 | 0.45 | 0.46 | 0.821 | 1.01
SKKVRYVVSKA [BARD1_Y156] | 1.38 | 1.17 | 1.32 | 0.292 | 0.569 | 0.312 | 0.36 | 0.372 | 0.402 | 0.482 | 0.309 | 0.366 | 0.341 | 0.334 | 0.538 | 0.474
SLDHPFEKPRK [INAVA_Y333_Y333F] | 1.01 | 0.813 | 0.508 | 0.388 | 0.749 | 0.365 | 0.3 | 0.376 | 0.524 | 0.663 | 0.317 | 0.721 | 0.436 | 0.433 | 0.61 | 0.589
SLFQFYFQQKG [CHKB_Y381_R377L] | 1.58 | 1.37 | 1.02 | 0.521 | 1.42 | 0.403 | 0.612 | 0.488 | 0.833 | 1.43 | 0.657 | 0.397 | 0.425 | 0.568 | 0.932 | 1.35
SLQFEYVHFGG [CDC14A_Y591_S589F_YF] | 1.08 | 0.925 | 0.643 | 1.47 | 1.29 | 0.426 | 0.367 | 0.557 | 1.33 | 1.12 | 0.612 | 0.548 | 0.604 | 0.682 | 0.781 | 1.25
SLVGCYNLTFM [HS6ST3_Y323] | 0.599 | 0.553 | 0.432 | 0.589 | 1.56 | 0.498 | 1.29 | 0.745 | 0.95 | 1.39 | 0.694 | 0.694 | 0.794 | 0.868 | 1.12 | 1.42
SMGHRYIEVFR [HNRNPF_Y82_K87R] | 0.936 | 1.33 | 3.04 | 0.53 | 0.691 | 0.474 | 0.483 | 0.453 | 0.506 | 0.688 | 0.451 | 0.335 | 0.367 | 0.576 | 0.514 | 0.622
SQQTFYPVSNM [ABCD1_Y181_R182P_YF] | 0.881 | 0.644 | 0.466 | 0.507 | 0.654 | 0.374 | 0.318 | 0.407 | 0.513 | 0.598 | 0.387 | 0.419 | 0.398 | 0.49 | 0.57 | 0.706
SRGHQYQELPR [KCNH2_Y1009_R1007H] | 1.04 | 0.807 | 5.11 | 0.609 | 0.672 | 0.576 | 0.413 | 1.06 | 0.464 | 0.721 | 0.466 | 0.487 | 0.35 | 0.602 | 0.589 | 0.527
SSFSRYIMMPN [LEF1_Y114_G113R_YF] | 0.73 | 0.728 | 0.946 | 0.599 | 0.806 | 0.588 | 0.484 | 0.559 | 0.617 | 0.812 | 0.471 | 0.509 | 0.485 | 0.556 | 0.626 | 0.738
SSSGAYGGGFG [KRT19_Y61_YF] | 0.724 | 0.517 | 0.427 | 0.412 | 0.689 | 0.396 | 0.396 | 0.415 | 0.464 | 0.595 | 0.383 | 0.434 | 0.452 | 0.378 | 0.539 | 0.553
SSSNPYSTVTM [ACTN2_Y599] | 0.766 | 7.62 | 3.42 | 0.543 | 0.751 | 0.521 | 10.9 | 0.995 | 0.486 | 0.599 | 0.461 | 0.976 | 1.9 | 0.389 | 0.768 | 0.62
STEEQYRICQV [EFHC1_Y115_R118C] | 0.695 | 0.52 | 0.367 | 0.599 | 1.53 | 0.492 | 0.598 | 0.52 | 0.848 | 1.08 | 0.71 | 0.541 | 0.566 | 0.629 | 0.999 | 1.09
SYKNKYGMVAQ [APOB_Y276] | 1.01 | 0.786 | 0.613 | 0.385 | 0.674 | 0.335 | 0.398 | 0.442 | 0.385 | 0.483 | 0.333 | 0.367 | 0.569 | 0.333 | 0.562 | 0.555

Now from value to sequence, other results behind:

SH2 binding enrichment (Grb2 SH2) | SH2 binding enrichment (SHP2-C SH2) | SH2 binding enrichment (c-Src SH2) | Sequence | phosphorylation enrichment (FGFR1) | phosphorylation enrichment (Fes) | phosphorylation enrichment (MERTK) | phosphorylation enrichment (Fer (mouse)) | phosphorylation enrichment (Hck) | phosphorylation enrichment (FGFR3) | phosphorylation enrichment (Jak2) | phosphorylation enrichment (EPHB1) | phosphorylation enrichment (Fyn) | phosphorylation enrichment (c-Src) | phosphorylation enrichment (EPHB2) | phosphorylation enrichment (c-Abl (mouse)) | phosphorylation enrichment (AncSZ)
0.777 | 0.737 | 1.6 | SLIDMYSKVLD [OPA1_Y268_E270K] | 0.479 | 1.02 | 0.481 | 0.501 | 0.497 | 0.637 | 0.814 | 0.462 | 0.421 | 0.478 | 0.57 | 0.482 | 0.953
0.732 | 0.602 | 0.533 | SLTGAYASGIP [POM121C_Y378_T379A] | 0.519 | 0.906 | 0.436 | 0.453 | 0.575 | 0.602 | 0.904 | 0.518 | 0.478 | 0.482 | 0.43 | 0.647 | 0.627
0.806 | 0.452 | 0.438 | SLTRLYVGENA [NLRP3_Y861] | 0.485 | 0.703 | 0.34 | 0.444 | 0.554 | 0.517 | 0.494 | 0.357 | 0.424 | 0.357 | 0.521 | 0.496 | 0.725
0.705 | 0.506 | 0.655 | SNKELYEKYMI | 0.482 | 0.802 | 0.597 | 7.5 | 0.871 | 0.579 | 0.616 | 0.652 | 0.593 | 0.96 | 0.62 | 0.487 | 0.896
1.52 | 3.05 | 1.11 | SPYMLYQYLKQ [RPAP3_Y567_D564Y] | 5.62 | 1.24 | 9.38 | 10.6 | 7.66 | 4.11 | 2.23 | 14.1 | 4.34 | 5.57 | 11.4 | 3.63 | 1.39
0.685 | 0.691 | 0.344 | SREDIYKRNTE [PDE4DIP_Y45_I49T] | 0.411 | 1.05 | 0.374 | 0.463 | 0.429 | 0.696 | 0.81 | 0.62 | 0.409 | 0.451 | 0.416 | 0.898 | 0.8
0.774 | 0.522 | 0.386 | SRNSKYNAEST [PSEN1_Y315_K311R] | 0.378 | 0.441 | 0.464 | 0.347 | 0.323 | 0.376 | 0.489 | 0.328 | 0.366 | 0.378 | 0.46 | 0.497 | 0.512
0.787 | 0.789 | 0.477 | SSPRRYTIAAL [TTR_Y125_G121S] | 0.383 | 0.567 | 0.34 | 0.382 | 0.378 | 0.402 | 0.356 | 0.303 | 0.412 | 0.312 | 0.374 | 0.4 | 0.437
0.939 | 0.815 | 0.76 | STDDGCIDLQF [TMEM230_Y29_Y29C] | 0.613 | 1.13 | 0.646 | 0.55 | 0.665 | 0.797 | 0.979 | 0.492 | 0.56 | 0.503 | 0.636 | 0.668 | 1.14
0.737 | 0.52 | 0.457 | SVTCMYSPALN [TP53_Y126_T125M] | 0.481 | 1.47 | 0.472 | 0.667 | 0.594 | 0.749 | 1.36 | 0.738 | 0.501 | 0.804 | 0.632 | 0.97 | 1.39
0.721 | 0.747 | 0.388 | SVTCTYFPALN [TP53_Y126_S127F] | 0.632 | 1.82 | 0.608 | 0.637 | 0.554 | 1.01 | 1.64 | 0.83 | 0.487 | 0.452 | 0.669 | 1.13 | 1.68
0.588 | 0.661 | 0.369 | SVTCTYSPAVN [TP53_Y126_L130V] | 0.697 | 1.71 | 0.508 | 0.646 | 0.654 | 0.945 | 1.49 | 0.77 | 0.58 | 0.662 | 0.746 | 1.18 | 1.58
0.791 | 0.861 | 0.963 | SVVLPYEPPEV [TP53_Y220_V218L] | 0.538 | 1.12 | 0.47 | 0.746 | 0.518 | 0.704 | 0.98 | 0.686 | 0.456 | 0.592 | 0.797 | 0.945 | 1.47
0.825 | 0.783 | 0.538 | SVVVPNEPPEV [TP53_Y220_Y220N] | 0.63 | 1.43 | 0.439 | 0.691 | 0.581 | 0.81 | 1.05 | 0.645 | 0.539 | 0.517 | 0.665 | 0.711 | 1.03
0.825 | 0.699 | 0.441 | SYPHEYGSQEG [RBM10_Y48_R46H] | 0.54 | 0.87 | 0.465 | 0.411 | 0.458 | 0.559 | 0.767 | 0.483 | 0.402 | 0.415 | 0.44 | 0.591 | 0.835
1.17 | 0.796 | 0.522 | TAIFIYIRPKA [OR10C1_Y258_L255I] | 0.518 | 1.39 | 0.387 | 0.584 | 0.481 | 0.814 | 1.46 | 0.414 | 0.615 | 0.521 | 0.68 | 0.641 | 1.79
0.708 | 0.69 | 0.493 | TEGNEYVFRVA | 0.647 | 1.28 | 0.421 | 0.44 | 0.486 | 0.822 | 0.949 | 0.593 | 0.583 | 0.528 | 0.627 | 0.647 | 1.08
0.913 | 0.769 | 2.11 | TEQDPYNNIVH [MMUT_Y364_R369H] | 0.501 | 0.965 | 0.512 | 0.544 | 0.586 | 0.599 | 0.788 | 0.475 | 0.572 | 0.515 | 0.679 | 0.851 | 1.05
